Usually Kd stands for a measure of binding affinity in units of concentration.

For assay [1], the target named is GyrB.FGFR1KD.TC, activated (incubated with ATP, autophosphorylated) (UniProt P11362). As to the kind of experiment: FRET or BRET; TR-FRET, lifetime of donor mTFP in a quartz cuvette; GyrB.FGFR1KD.TC (1 uM) tagged with FlAsH-EDT2 and mTFP.nSH2 (1 uM); 40 mM Tris-HCl pH 8.0, 20 mM MgCl2, 20 mM NaCl, 100 uM TCEP, 100 uM Na3VO4; with 50 uM ATP, ambient conditions, 30 min.

Assay [2] addresses FGFR1 kinase domain and tail (Homo sapiens) (UniProt P11362). The note with it: cited from earlier work.

In turn, “mTurquoise.nSH2 fusion protein (mTFP.nSH2) (domain or fragment)” gave a decrease in donor lifetime in assay [1] of 500 ps.
On to PLCγ1 nSH2 (from UniProt P19174), for which, in assay [2], the Kd is 5 nM.
